Data as given in patent US20250018014A1, “METHOD FOR TREATING AND/OR PREVENTING REGNASE-1-RELATED DISEASE” (OSAKA UNIVERSITY, priority 2018, published 2025).
Entries after “also recorded” stand apart in the source; their conditions may differ.

T1: FL_Reg1 (human full-length Regnase-1) (Homo sapiens, UniProt Q5D1E8)
T1 construct: made in house; host or cells: Expi293 cells
T1 sequence (Q5D1E8 1-599): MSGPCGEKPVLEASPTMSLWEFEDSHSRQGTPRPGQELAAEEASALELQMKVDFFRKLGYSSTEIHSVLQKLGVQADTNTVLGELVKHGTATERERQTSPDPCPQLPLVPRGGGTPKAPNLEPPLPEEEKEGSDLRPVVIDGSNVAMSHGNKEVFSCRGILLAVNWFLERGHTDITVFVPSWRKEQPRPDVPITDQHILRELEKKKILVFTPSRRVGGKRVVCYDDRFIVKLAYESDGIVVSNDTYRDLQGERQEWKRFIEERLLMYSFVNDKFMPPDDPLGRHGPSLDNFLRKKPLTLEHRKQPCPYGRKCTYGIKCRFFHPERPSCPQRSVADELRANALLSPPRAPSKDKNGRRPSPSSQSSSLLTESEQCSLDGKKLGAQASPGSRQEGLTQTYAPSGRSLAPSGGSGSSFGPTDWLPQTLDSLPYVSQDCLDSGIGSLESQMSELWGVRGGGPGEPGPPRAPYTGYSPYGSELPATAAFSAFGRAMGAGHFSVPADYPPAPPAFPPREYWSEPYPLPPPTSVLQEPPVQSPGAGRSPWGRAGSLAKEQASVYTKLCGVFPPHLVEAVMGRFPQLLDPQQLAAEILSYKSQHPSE

T2: Regnase-1 phosphorylation by IKKβ (Homo sapiens, UniProt Q5D1E8)
T2 construct: GST (N, cleaved yes); made in house; host or cells: Expi293 cells
T2 sequence (Q5D1E8 1-599): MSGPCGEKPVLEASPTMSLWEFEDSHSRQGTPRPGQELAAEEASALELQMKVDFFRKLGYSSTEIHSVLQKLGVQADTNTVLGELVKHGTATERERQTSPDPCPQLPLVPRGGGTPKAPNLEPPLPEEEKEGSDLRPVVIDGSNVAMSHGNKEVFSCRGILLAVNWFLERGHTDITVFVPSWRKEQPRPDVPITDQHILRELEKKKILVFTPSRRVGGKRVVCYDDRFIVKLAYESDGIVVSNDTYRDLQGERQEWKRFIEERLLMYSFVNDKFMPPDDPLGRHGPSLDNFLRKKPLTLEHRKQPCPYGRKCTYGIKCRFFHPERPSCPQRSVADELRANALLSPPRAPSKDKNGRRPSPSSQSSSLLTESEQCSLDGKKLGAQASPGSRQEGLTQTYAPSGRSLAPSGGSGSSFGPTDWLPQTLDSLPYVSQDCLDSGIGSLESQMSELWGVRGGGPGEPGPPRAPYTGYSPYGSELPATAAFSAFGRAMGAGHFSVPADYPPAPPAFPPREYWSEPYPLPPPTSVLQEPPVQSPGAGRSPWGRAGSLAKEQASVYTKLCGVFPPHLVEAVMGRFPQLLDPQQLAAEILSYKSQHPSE


How the values were obtained:
[1] = test system: appearance of non-phosphorylated Regnase-1 in MEF; test: Immunoblot analysis of Regnase-1 in MEFs during the recovery phase after IL-17A stimulation; format: cell-based, mouse; conditions: after IL-17A (50 ng/ml) one hour; cycloheximide and okadaic acid (0.5 μM)
Procedure: Total mRNA was prepared from cells treated with doxycycline for 0 to 4 hours, and then subjected to Northern blotting using [^32P] labelled probes. […] Cells were treated with IL-17A (50 ng/ml) for one hour, and subsequently incubated in a medium with no additives (control), a medium containing cycloheximide (100 μM), or a medium containing both cycloheximide and okadaic acid (0.5 μM) for 0 to 240 minutes. […] The qPCR data (A, B, and E) were collected from four independent experiments. The error bars represent mean±SEM. ***P<0.005.
Next, the present inventors investigated the mechanism of target mRNA suppression in Regnase-1AA/AA cells. As described above, suppression of target mRNA is more enhanced at later stages of IL-17A stimulation. The present inventors used immunoblot analysis of phosphorylated and non-phosphorylated Regnase-1 during the recovery phase after the completion of IL-17A stimulation. […] The increase in the amount of non-phosphorylated Regnase-1 protein was enhanced much more strongly in Regnase-1AA/AA MEF than in wild type cells.

[2] = test system: IL-6 mRNA stability in Regnase-1AA/AA MEF; test: qPCR analysis of IL-6 mRNA levels in Regnase-1AA/AA MEFs after TNF-α and IL-17A, with ActD; format: cell-based, mouse; conditions: ActD and okadaic acid (0.5 μM)
[3] = test system: Regnase-1 phosphorylation upon IL-17A stimulation in MEF; test: Immunoblot analysis of Regnase-1 in wild-type MEFs stimulated with IL-17 in the presence of BX795; format: cell-based, mouse; conditions: BX795 (50 μM)
Description: The two arrows indicate the phosphorylated form (upper) and unphosphorylated form (lower) of Regnase-1.
To identify the kinase responsible for Regnase-1 phosphorylation in the IL-17A signaling pathway, the inventors investigated a series of MEFs lacking TBK1, IKKi, TBK1/IKKi, Act1, IKKa/IKKβ, or IRAK1/IRAK2. […] To investigate whether TBK1 and IKKi directly phosphorylate Regnase-1, the present inventors prepared recombinant Regnase-1 purified from a MEF cell line stably expressing FLAG-tagged Regnase-1. Phosphorylation of recombinant Regnase-1 by recombinant TBK1 and/or IKKi under in vitro conditions was detected as an electrophoretic mobility shift pattern by immunoblotting and ^32P autoradiography (FIG. 12-2D). […] The phosphorylation pattern of Regnase-1 by IRAK appeared to be similar to that by TBK1 and IKKi, but Regnase-1 phosphorylation occurred in IRAK1/IRAK2 double-deficient MEF (FIG. 12-2E). In contrast, Regnase-1 phosphorylation in response to IL-1β occurred in TBK1/IKKi double-deficient MEF (FIG. 12-3J).

[4] = biological target: T1, FL_Reg1 (human full-length Regnase-1); test: Binding of anti-non-phosphorylated Regnase-1 peptide antibodies to bead-bound full length human Regnase-1 (iQue screener); conditions: streptavidin-immobilized beads; histograms FIG. 32
Procedure: (§1) • Biotin-Conjugated FL_Reg1, Biotin-Conjugated Peptide • […], biotin-conjugated peptide • AFPPREYWSEPYPLPPPTC-NH2, and biotinylated BSA (Sigma, A8549) were each bound to streptavidin-immobilized beads.
(§2) These beads were mixed with each anti-Regnase-1 antibody, and they were allowed to react. Thereafter, Anti-Rabbit IgG1 Alexa488 (molecular probes, A21244) was mixed and reacted, and analysis was performed with iQue screener PLUS (intellicyt). Data was analyzed with FlowJo ver10.

[5] = biological target: T2, Regnase-1 phosphorylation by IKKβ; test: Inhibitory activity of anti-Regnase-1 antibodies against Regnase-1 phosphorylation by IKKβ (Phos-tag gel, western blotting); format: biochemical; conditions: antibody at final concentrations of 16.7 μg/mL and 5.0 μg/mL; relative to Control group
Procedure: To a solution (ATP buffer) containing Kinase Assay Buffer III (manufactured by SignalChem) supplemented with 2 mM DTT, 100 μM sodium vanadate, 2 mM manganese chloride, and 15 μM ATP, dephosphorylated Regnase-1 was mixed at 150 nM. Four microliters of this solution and 4 μL of HEPES Buffered Saline containing 50 μg/mL or 15 μg/mL of anti-Regnase-1 antibody were mixed, and this was allowed to react for one hour. This reaction solution was mixed with 4 μL of ATP buffer containing 150 nM of each kinase (IKKβ or TBK1), and further reacted for one hour. After the reaction, 4 μL of 4× Laemmli Sample buffer (manufactured by Bio-Rad) was added and this mixture was incubated at 95° C. for five minutes for protein denaturation treatment. This sample was ice-cooled for three minutes, and 10 μL of it was added to SuperSep Phos-tag 7.5% 17 wells (manufactured by Wako) placed in EasySeparator (manufactured by Wako). […] Chemiluminescence was detected using ImageQuant LAS4000 mini (manufactured by GE Healthcare).
A band for phosphorylated Regnase-1 was detected due to treatment with each kinase (FIG. 33A). Band densities were measured with Image Quant-TL (manufactured by GE Healthcare). The relative value for the band density of the sample to which each compound was added was calculated, considering the band density of the kinase-added sample of the Control group, to which no compound was added, as 1. […]

[6] = biological target: T3, Peptide 1 ([…]), partial peptide of human Regnase-1 (Homo sapiens, UniProt Q5D1E8); test: Binding of anti-non-phosphorylated Regnase-1 peptide antibodies to bead-bound Peptide 1 (iQue screener); conditions: streptavidin-immobilized beads; histograms FIG. 32
T3 construct: […], biotin-conjugated peptide; made in house; host or cells: chemical synthesis
Procedure: as §1, §2

Molecule | appearance of non-phosphorylated Regnase-1 during the recovery phase [1] | IL-6 mRNA stability / half-life [2] | Regnase-1 phosphorylation upon IL-17A stimulation [3] | binding to FL_Reg1 compared with biotinylated BSA [4] | density of the phosphorylated Regnase-1 band in IKKβ treatment [5] | binding to Peptide 1 compared with biotinylated BSA [6]
C=C1[C@@H](O)[C@@H]2O[C@]3(CC[C@H](/C=C/[C@@H](C)[C@@H]4CC(C)=C[C@@]5(O[C@H](C[C@@](C)(O)C(=O)O)CC[C@H]5O)O4)O3)CC[C@H]2O[C@@H]1[C@@H](O)C[C@H](C)[C@H]1O[C@@]2(CCCCO2)CC[C@H]1C [okadaic acid] | non-phosphorylated Regnase-1 did not appear | IL-6 mRNA stability was also enhanced; also recorded: dramatic increase in the half-life of IL-6 mRNA |  |  |  | 
O=C(NCCCNc1nc(Nc2cccc(NC(=O)N3CCCC3)c2)ncc1I)c1cccs1 [BX795] |  |  | inhibited Regnase-1 phosphorylation |  |  | 
REA0023: anti-Regnase-1 antibody; heavy chain SEQ ID NO: 20, light chain SEQ ID NO: 21 (antibody) heavy: QSLEESGGDLVKPGASLTLTCTDAGFSFSGVYWMHWVRQAPGKGLEWIACINAGSSGSTYYASWAKGRFTISKPSSTTVTLQMTSLTVADTATYFCARSFTLWGPGTLVTVSSGQPKAPSVFPLAPCCGDTPSSTVTLGCLVKGYLPEPVTVTWNSGTLTNGVRTFPSVRQSSGLYSLSSVVSVTSSSQPVTCNVAHPATNTKVDKTVAPSTCSKPTCPPPELLGGPSVFIFPPKPKDTLMISRTPEVTCVVVDVSQDDPEVQFTWYINNEQVRTARPPLREQQFNSTIRVVSTLPITHQDWLRGKEFKCKVHNKALPAPIEKTISKARGQPLEPKVYTMGPPREELSSRSVSLTCMINGFYPSDISVEWEKNGKAEDNYKTTPAVLDSDGSYFLYNKLSVPTSEWQRGDVFTCSVMHEALHNHYTQKSISRSPGK light: AVVTQTPSSVSAAVGGTVTIKCQSSQSVGNNNYLAWFQQKPGQPPKLLIYSASTLASGVPSRFSGSGSGTQFTLTISGVQCDDAATYYCLGGYDGDGEAFYVFGGGTEVVVKGDPVAPTVLIFPPAADQVATGTVTIVCVANKYFPDVTVTWEVDGTTQTTGIENSKTPQNSADCTYNLSSTLTLTSTQYNSHKEYTCKVTQGTTSVVQSFNRGDC |  |  |  | bound more strongly | decreased | bound more strongly
REA0027: anti-Regnase-1 antibody; heavy chain SEQ ID NO: 22, light chain SEQ ID NO: 23 (antibody) heavy: QSLEESGGDLVKPGASLTLTCTASGFGFSSSYWMHWVRQAPGKGLEWIACINAGSSTKTYYASWAKGRFTISKPSSTTVTLQMTSLTVADTATYFCAWSFNLWGPGTLVTVSSGQPKAPSVFPLAPCCGDTPSSTVTLGCLVKGYLPEPVTVTWNSGTLTNGVRTFPSVRQSSGLYSLSSVVSVTSSSQPVTCNVAHPATNTKVDKTVAPSTCSKPTCPPPELLGGPSVFIFPPKPKDTLMISRTPEVTCVVVDVSQDDPEVQFTWYINNEQVRTARPPLREQQFNSTIRVVSTLPITHQDWLRGKEFKCKVHNKALPAPIEKTISKARGQPLEPKVYTMGPPREELSSRSVSLTCMINGFYPSDISVEWEKNGKAEDNYKTTPAVLDSDGSYFLYNKLSVPTSEWQRGDVFTCSVMHEALHNHYTQKSISRSPGK light: AVVTQTPSSVSAAVGGTVTIKCQSSQSVGNNNWLAWFQQKPGQPPKLLIYSASTLASGVPSRFSGSGSGTQFTLTISGVQCDDAATYYCLGGYDGDGEAFYVFGGGTEVVVKGDPVAPTVLIFPPAADQVATGTVTIVCVANKYFPDVTVTWEVDGTTQTTGIENSKTPQNSADCTYNLSSTLTLTSTQYNSHKEYTCKVTQGTTSVVQSFNRGDC |  |  |  | bound more strongly | decreased | bound more strongly
